Assay results from article PMC5940780, “Functional insights into the interplay between DNA interaction and metal coordination in ferric uptake regulators” (Scientific Reports, 2018).

Experiments:
[1] = target: T1, CjFur K17E K17E (Campylobacter jejuni NCTC11168?) (UniProt P0C631); test: EMSA; conditions: 20 mM Bis-Tris borate pH 7.4, 50 mM KCl, 3 mM MgCl2, 5% glycerol, 0.1% Triton X-100, 0.1 ug poly dI-dC, 2 nM DNA, 45 min on ice; holo: +50 uM MnCl2 (100 uM in …)
T1 sequence: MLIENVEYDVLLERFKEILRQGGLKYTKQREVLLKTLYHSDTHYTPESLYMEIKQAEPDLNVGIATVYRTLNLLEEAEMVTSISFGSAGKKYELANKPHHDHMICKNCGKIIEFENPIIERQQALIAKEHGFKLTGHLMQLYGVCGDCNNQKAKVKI

[2] = target: T2, CjFur K25E K25E (Campylobacter jejuni NCTC11168?) (UniProt P0C631); test: EMSA; conditions: 20 mM Bis-Tris borate pH 7.4, 50 mM KCl, 3 mM MgCl2, 5% glycerol, 0.1% Triton X-100, 0.1 ug poly dI-dC, 2 nM DNA, 45 min on ice; holo: +50 uM MnCl2 (100 uM in …)
T2 sequence: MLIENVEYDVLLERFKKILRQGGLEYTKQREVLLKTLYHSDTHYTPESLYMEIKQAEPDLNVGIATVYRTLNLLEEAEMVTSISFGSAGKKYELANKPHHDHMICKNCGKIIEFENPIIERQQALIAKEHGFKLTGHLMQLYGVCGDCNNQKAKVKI

[3] = target: T3, CjFur K28E K28E (Campylobacter jejuni NCTC11168?) (UniProt P0C631); test: EMSA; conditions: 20 mM Bis-Tris borate pH 7.4, 50 mM KCl, 3 mM MgCl2, 5% glycerol, 0.1% Triton X-100, 0.1 ug poly dI-dC, 2 nM DNA, 45 min on ice; holo: +50 uM MnCl2 (100 uM in …)
T3 sequence: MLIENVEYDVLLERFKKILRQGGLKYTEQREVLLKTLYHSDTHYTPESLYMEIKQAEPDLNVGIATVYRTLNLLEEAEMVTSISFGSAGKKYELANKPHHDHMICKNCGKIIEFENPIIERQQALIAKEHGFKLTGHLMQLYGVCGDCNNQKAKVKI

[4] = target: T4, CjFur R20E R20E (Campylobacter jejuni NCTC11168?) (UniProt P0C631); test: EMSA; conditions: 20 mM Bis-Tris borate pH 7.4, 50 mM KCl, 3 mM MgCl2, 5% glycerol, 0.1% Triton X-100, 0.1 ug poly dI-dC, 2 nM DNA, 45 min on ice; holo: +50 uM MnCl2 (100 uM in …)
T4 sequence: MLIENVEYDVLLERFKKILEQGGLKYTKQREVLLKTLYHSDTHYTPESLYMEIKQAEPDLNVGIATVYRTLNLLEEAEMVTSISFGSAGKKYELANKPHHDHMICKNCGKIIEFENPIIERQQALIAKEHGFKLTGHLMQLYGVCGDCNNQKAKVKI

[5] = target: T5, CjFur R30E R30E (Campylobacter jejuni NCTC11168?) (UniProt P0C631); test: EMSA; conditions: 20 mM Bis-Tris borate pH 7.4, 50 mM KCl, 3 mM MgCl2, 5% glycerol, 0.1% Triton X-100, 0.1 ug poly dI-dC, 2 nM DNA, 45 min on ice; holo: +50 uM MnCl2 (100 uM in …)
T5 sequence: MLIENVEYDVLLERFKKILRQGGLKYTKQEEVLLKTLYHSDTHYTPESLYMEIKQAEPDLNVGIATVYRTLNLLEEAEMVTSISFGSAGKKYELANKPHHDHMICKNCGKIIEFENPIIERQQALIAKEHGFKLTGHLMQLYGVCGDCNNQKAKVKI

[6] = target: T6, CjFur R69E R69E (Campylobacter jejuni NCTC11168?) (UniProt P0C631); test: EMSA; conditions: 20 mM Bis-Tris borate pH 7.4, 50 mM KCl, 3 mM MgCl2, 5% glycerol, 0.1% Triton X-100, 0.1 ug poly dI-dC, 2 nM DNA, 45 min on ice; holo: +50 uM MnCl2 (100 uM in …)
T6 sequence: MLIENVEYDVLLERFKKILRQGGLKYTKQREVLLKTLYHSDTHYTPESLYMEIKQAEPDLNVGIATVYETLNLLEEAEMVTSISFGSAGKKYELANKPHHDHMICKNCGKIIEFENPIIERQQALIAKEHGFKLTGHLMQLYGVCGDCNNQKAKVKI

[7] = target: T7, CjFur WT (Campylobacter jejuni NCTC11168?) (UniProt P0C631); test: EMSA; conditions: 20 mM Bis-Tris borate pH 7.4, 50 mM KCl, 3 mM MgCl2, 5% glycerol, 0.1% Triton X-100, 0.1 ug poly dI-dC, 2 nM DNA, 45 min on ice; holo: +50 uM MnCl2 (100 uM in …)
T7 sequence: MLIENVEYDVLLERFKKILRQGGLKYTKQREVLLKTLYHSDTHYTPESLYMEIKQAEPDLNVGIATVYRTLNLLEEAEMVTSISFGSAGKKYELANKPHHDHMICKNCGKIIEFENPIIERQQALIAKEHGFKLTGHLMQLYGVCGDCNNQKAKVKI

[8] = target: T8, CjFur Y68A Y68A (Campylobacter jejuni NCTC11168?) (UniProt P0C631); test: EMSA; conditions: 20 mM Bis-Tris borate pH 7.4, 50 mM KCl, 3 mM MgCl2, 5% glycerol, 0.1% Triton X-100, 0.1 ug poly dI-dC, 2 nM DNA, 45 min on ice; holo: +50 uM MnCl2 (100 uM in …)
T8 sequence: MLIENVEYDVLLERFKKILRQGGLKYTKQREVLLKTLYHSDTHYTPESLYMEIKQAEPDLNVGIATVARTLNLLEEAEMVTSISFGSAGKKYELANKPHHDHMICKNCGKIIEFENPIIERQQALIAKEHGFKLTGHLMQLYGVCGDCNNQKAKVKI

[9] = target: T9, CjFurΔS2 H43A;H102A (Campylobacter jejuni NCTC11168?) (UniProt P0C631); test: EMSA; conditions: 20 mM Bis-Tris borate pH 7.4, 50 mM KCl, 3 mM MgCl2, 5% glycerol, 0.1% Triton X-100, 0.1 ug poly dI-dC, 2 nM DNA, 45 min on ice; holo: +50 uM MnCl2 (100 uM in …)
T9 sequence: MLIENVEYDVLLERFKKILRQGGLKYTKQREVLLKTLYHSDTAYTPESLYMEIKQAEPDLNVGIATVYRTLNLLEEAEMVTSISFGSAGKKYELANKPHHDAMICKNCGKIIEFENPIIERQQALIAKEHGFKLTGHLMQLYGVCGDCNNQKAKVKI

[10] = target: T10, CjFurΔS3 H99A;H137A (Campylobacter jejuni NCTC11168?) (UniProt P0C631); test: EMSA; conditions: 20 mM Bis-Tris borate pH 7.4, 50 mM KCl, 3 mM MgCl2, 5% glycerol, 0.1% Triton X-100, 0.1 ug poly dI-dC, 2 nM DNA, 45 min on ice; holo: +50 uM MnCl2 (100 uM in …)
T10 sequence: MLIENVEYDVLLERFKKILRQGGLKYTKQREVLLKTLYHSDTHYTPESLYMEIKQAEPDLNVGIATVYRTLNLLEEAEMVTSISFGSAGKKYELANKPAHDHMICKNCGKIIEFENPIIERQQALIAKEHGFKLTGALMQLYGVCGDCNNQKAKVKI

[11] = target: CjFur Y68A (UniProt P0C631 1-157, Y68A); test: EMSA; holo, 50 uM MnCl2; 0-100 nM protein; 20 mM Bis-Tris borate pH 7.4, 50 mM KCl, 3 mM MgCl2, 5% glycerol, 0.1% Triton X-100, 0.1 ug poly dI-dC, 2 nM DNA, 45 min on ice; holo: +50 uM MnCl2 (100 uM in gel); gel at 4 C; conditions: protein: recombinant; tags: N-terminal Strep tag, TEV-cleaved; chain copies: 2; label: 5' Cy5 on both strands; blunt
[12] = target: CjFur R69E (UniProt P0C631 1-157, R69E); test: as above; conditions: protein: recombinant; tags: N-terminal Strep tag, TEV-cleaved; chain copies: 2; label: 5' Cy5 on both strands; blunt
[13] = target: CjFur K25E (UniProt P0C631 1-157, K25E); test: as above; conditions: protein: recombinant; tags: N-terminal Strep tag, TEV-cleaved; chain copies: 2; label: 5' Cy5 on both strands; blunt
[14] = target: CjFur R30E (UniProt P0C631 1-157, R30E); test: as above; conditions: protein: recombinant; tags: N-terminal Strep tag, TEV-cleaved; chain copies: 2; label: 5' Cy5 on both strands; blunt
[15] = target: T11, CjFur WT (UniProt P0C631 1-157); test: EMSA; holo, 50 uM MnCl2; 0-100 nM protein; two bound species; 20 mM Bis-Tris borate pH 7.4, 50 mM KCl, 3 mM MgCl2, 5% glycerol, 0.1% Triton X-100, 0.1 ug poly dI-dC, 2 nM DNA, 45 min on ice; holo: +50 uM MnCl2 (100 uM in gel); gel at 4 C; conditions: protein: recombinant; tags: N-terminal Strep tag, TEV-cleaved; chain copies: 2; label: 5' Cy5 on both strands; blunt
T11 sequence: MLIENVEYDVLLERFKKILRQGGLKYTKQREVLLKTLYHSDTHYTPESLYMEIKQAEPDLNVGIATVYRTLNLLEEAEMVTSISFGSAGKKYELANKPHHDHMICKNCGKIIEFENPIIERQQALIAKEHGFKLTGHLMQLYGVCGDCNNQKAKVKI

[16] = target: the molecule itself; test: crystal structure; CjFur (7.5 ug/uL) crystallised in 0.1 M Bis-Tris pH 5.5, 0.25 M MgFormate, 25% PEG3350; molecular replacement; 1.8 A; form with zinc in S1 only (CjFurZn)

Molecule: GGGAAAAGAGCCAAATTTAGGTGTTATCATCAATGCTGCTAATGAAGTTGGTGTTTATAATTTTTTAGAAAATAAAAGTGGATTTTTAGACATTGCTAAATGCATTTTTAAAGCCCTTGATCATTTTGGAGTACCTAAAATTTCAAGCATAGAAGAAGTTTTTGAGTATGATTTTAAAACAAGAGAGTATTTAAGGAGTTAAA (double strand) [cj1345c promoter region]
- binding [1]: binds more weakly
- binding [2]: no binding
- binding [3]: no binding
- binding [4]: no binding
- binding [5]: binds more weakly
- binding [6]: no binding
- binding [7]: binds
- binding [8]: binds more weakly
- binding [9]: binds more weakly
- binding [10]: binds more weakly

B1: katA promoter 60 bp (dsDNA)
DNA 1: ACTGAATAATTGCATTTTATTGATAATAAATTTCAAAATAAATTTAGTTTTTTTATATTA
DNA 2: TAATATAAAAAAACTAAATTTATTTTGAAATTTATTATCAATAAAATGCAATTATTCAGT
- binding result [11]: no binding
- binding result [12]: no binding
- binding result [13]: no binding
- binding result [14]: no binding
- binding result [15]: binds

B2: Campylobacter jejuni Fur (ferric uptake regulator), wild type (natural protein)
chain: MLIENVEYDVLLERFKKILRQGGLKYTKQREVLLKTLYHSDTHYTPESLYMEIKQAEPDLNVGIATVYRTLNLLEEAEMVTSISFGSAGKKYELANKPHHDHMICKNCGKIIEFENPIIERQQALIAKEHGFKLTGHLMQLYGVCGDCNNQKAKVKI
notes: Ferric uptake regulator Fur of Campylobacter jejuni; wild type; in the crystal one zinc per protomer in the S1 site (C105, C108, C145, C148), S2 and S3 sites empty; Crystallised form is called CjFurZn (zinc only in S1); the earlier structure 4ETS of the same protein is called CjFurZn2 (zinc in S1 and S3); also called CjFur; CjFurZn; source: E. coli Rosetta, purified (Strep-TACTIN beads, TEV …)
- stoichiometry N [16]: 2
